# Assay results published in patent publication US9610371B2, “Anticancer therapy” (STC.UNM, priority 2005, dated 2017).
# Where two headings read alike, the source gives them in different places.
# Key:
# [1] = 25 day toxicology in tumor bearing male Lewis rats; format: in vivo, Lewis rat; details: rat, in vivo
# Description: Toxicology was assessed at 25 days in 4 groups of tumor bearing male Lewis rats (average volume […]). Rats in the first group, Cohort 1, were injected on day 1 only. Rats in second cohort were injected on days 1 and 2, while rats in the third cohort were injected on days 1, 2, and 3. Rats were injected with 2.56 μg, 0.5 μg, 0.5 μg DOTATOC, on day 1, day 2 and day 3, respectively, with a nominal activity of 3.7 MBq. Each dose was divided into 2 injections at 1 hour intervals. The rats received the following cumulative average activities per group: Cohort 1 (N=3) received 4.3±0.7 MBq, Cohort 2 (N=3) received 9.0±0.4 MBq, and Cohort 3 (N=4) received 12.6±0.3 MBq of ^213Bi-DOTATOC. Cohort 4 (N=4) was added as control group and injected twice daily with unlabelled DOTATOC on three consecutive days.
# After 24 days, the animals were put into a metabolic cage to collect urine samples for creatinine clearance analysis. Creatine clearance was determined as previously described (20). After 24 hour urine collection, the animals were euthanized with halothane. For blood collection, a cardiac puncture was performed. Blood analysis consisted of hemoglobin (Hgb), hematocrit (Hct), red blood cells (RBC's), and white blood cells (WBC's) with differential, and platelets (Pt's). Additionally T4 and FSH values were assessed using the serum.
# Additional groups were then designed to study the effects of the treatment on a somatostatin receptor positive tumor. The first group was designed to study the effects of treatment on large volume tumors (average volume 1720±608 mm^3). This group, Cohort 5 (N=5), received three fractionated doses of ^213Bi-DOTATOC (specific activity 7.4 MBq ^213Bi/1 μG DOTATOC) with a total average cumulative dose of 13.0±0.5 MBq of ^213Bi-DOTATOC. The last cohort, the sixth cohort (N=4), was injected with two fractionated doses, ^213Bi-DOTATOC (specific activity 7.4 MBq ^213Bi/1 μG DOTATOC) with a total average cumulative dose of 22.2±0.7 MBq of ^213Bi-DOTATOC. As described earlier, each dose was divided into 2 injections separated by a 1 hour interval. Tumor response to the treatment was assessed in all cohorts by daily tumor measurements.
# (§1) Organs were harvested and immediately placed in 10% formalin for a minimum of 48 hours. Following fixation in formalin, bone samples were placed in decalcifying solution for 36 hours. Trimmed organs were sent to the TriCore Laboratories (Albuquerque, N. Mex.) where they were embedded in paraffin, sectioned, and stained with Hematoxylin and Eosin (H and E). Histopathologic evaluation was performed by a board certified veterinary pathologist (DFK) who examined the following organs of each animal: heart, lung, kidneys, testicles, spleen, pancreas, pituitary bone marrow, urinary bladder, adrenals, and two different sections of the liver.
# (§2) Sections of both the right and left kidneys were examined to determine nephrotoxicity in all cohorts. Bone marrow was examined to evaluate hypoplasia and other lesions in Cohorts 3 and 4. Interstitial nephritis and bone marrow were scored as follows: 0 no lesions, 1 minimal lesions, 2 mild lesions, 3 moderate lesions, and 4 severe lesions.
# (§3) For the pathology scoring, to evaluate nephrotoxicity on the 6 treatment groups, a frequency analysis was performed in StatXact-5 using the Jonckheere-Terpstra Test. For all other data, graphs and calculations were performed in SigmaStat®-3 and SigmaPlot®-9 as well as Graph Pad Prism®-4 using the t-test. For all statistical tests results were considered significant when p<0.05. Animal biodistribution and tumor volume data are expressed as the average, plus or minus the SEM.
# [2] = rat, in vivo
# Description: A 26 week toxicology study was performed in 3 groups of rats. The first group, Cohort 7 (N=3), received three fractionated doses ^213Bi-DOTATOC (specific activity 7.4 MBq ^213Bi/1 μG DOTATOC with a total average cumulative dose of 12.75±1.1 MBq. The second group, Cohort 8 (N=3), received D-lysine (concentration 400 mg/mL) immediately before receiving three fractionated doses ^213Bi-DOTATOC with a specific activity 7.4 MBq ^213Bi/1 μG DOTATOC with a total average cumulative dose of 11.39±0.14 MBq. The third group, cohort 9 (N=3) received 3 fractionated doses of DOTATOC. Rats were injected with 2.56 μg, 0.5 μg, 0.5 μg DOTATOC, on day 1, day 2 and day 3, respectively. As described earlier, each dose was divided into 2 injections separated by a 1 hour interval.
# as §1, §2
# [3] = Biodistribution in tumor bearing and non-tumor bearing rats; details: rat, in vivo
# Description: FIG. 13: A, B Graphical comparisons of Tumor and Non-Tumor Bearing Rats at 1 hour post injection of ^213Bi-DOTATOC. Columns, means, Bars, SEM, white columns represent non-tumor bearing rats and black columns represent tumor bearing rats. Significance of p<0.05 is represented by a (*).
# as §3
# [4] = as above; details: rat, in vivo, total radioactivity
structure (smiles),measurement,setting,value
"C[C@@H](O)[C@@H]1NC(=O)[C@H](CCCCN)NC(=O)[C@@H](Cc2c[nH]c3ccccc23)NC(=O)[C@H](Cc2ccc(O)cc2)NC(=O)[C@@H](NC(=O)[C@@H](Cc2ccccc2)NC(=O)CN2CCN(CC(=O)O)CCN(CC(=O)O)CCN(CC(=O)O)CC2)CSSC[C@@H](C(=O)N[C@H](CO)[C@@H](C)O)NC1=O [^213Bi-DOTATOC, metal not drawn]",FSH values vs control animals,[1],No significant changes
same,average histopathologic score for nephrititis,[1],1
same,hematology results vs control group,[1],did not show any significant differences
same,"histopathological examination of heart, lungs, liver, spleen, urinary bladder",[1],no evidence of treatment induced toxicity
same,"histopathology of testes, adrenals, pancreas",[1],No histopathologic abnormalities
same,likelihood of interstitial nephrititis with dose,[1],increased with increasing dose
same,nephrotoxicity with low-dose,[1],minimal nephrotoxicity
same,toxicity in the high-dose treatment cohort (kidney),[1],Minimal toxicity
same,FSH or T4 serum values vs control animals,[2],No significant changes
same,adrenal histopathology,[2],minimal nodular cortical hyperplasia in both adrenals
same,creatinine clearance vs control group (DOTATOC only),[2],No difference
same,hematology results vs control group,[2],did not show any significant differences
same,liver histopathology,[2],mild or moderate cholangiohepatitis and perivasculitits
same,lung histopathology,[2],minimal to mild interstitial pneumonia
same,microcystic degeneration in the pituitary,[2],mild to moderate
same,microcystic pancreatic degeneration,[2],mild to moderate
same,rats with one adrenal each with nodular cortical hyperplasia,[2],2 rats
same,"localization in stomach and muscle, tumor vs non-tumor bearing rats",[3],significantly higher
same,tissue uptake at 3 h,[4]; accumulation of radioactivity in the blood,0.02 %ID/g
same,tissue uptake at 3 h,[4]; accumulation of radioactivity in the bone marrow,0.06 ± 0.02 %ID/g
same,tissue uptake at 3 h,[4]; accumulation of radioactivity in the kidneys,11.2 ± 0.46 %ID/g
same,tissue uptake at 3 h,[4]; accumulation of radioactivity in the liver,0.14 ± 0.02 %ID/g
same,tissue uptake at 3 h,[4]; accumulation of radioactivity in the spleen,0.08 ± 0.01 %ID/g
same,tissue uptake at 3 h,[4]; accumulation of radioactivity in the stomach,0.08 ± 0.01 %ID/g
same,tissue uptake at 3 h,[4]; accumulation of radioactivity in the testis,0.02 %ID/g
